Laboratory results taken from IntAct's records for PubMed 29892012.

B1: Chaperone Ric-8A (Homo sapiens), Q9NPQ8 (parent)
chain: MEPRAVAEAVETGEEDVIMEALRSYNQEHSQSFTFDDAQQEDRKRLAELLVSVLEQGLPPSHRVIWLQSVRILSRDRNCLDPFTSRQSLQALACYADISVSEGSVPESADMDVVLESLKCLCNLVLSSPVAQMLAAEARLVVKLTERVGLYRERSFPHDVQFFDLRLLFLLTALRTDVRQQLFQELKGVRLLTDTLELTLGVTPEGNPPPTLLPSQETERAMEILKVLFNITLDSIKGEVDEEDAALYRHLGTLLRHCVMIATAGDRTEEFHGHAVNLLGNLPLKCLDVLLTLEPHGDSTEFMGVNMDVIRALLIFLEKRLHKTHRLKESVAPVLSVLTECARMHRPARKFLKAQVLPPLRDVRTRPEVGEMLRNKLVRLMTHLDTDVKRVAAEFLFVLCSESVPRFIKYTGYGNAAGLLAARGLMAGGRPEGQYSEDEDTDTDEYKEAKASINPVTGRVEEKPPNPMEGMTEEQKEHEAMKLVTMFDKLSRNRVIQPMGMSPRGHLTSLQDAMCETMEQQLSSDPDSDPD
B2: Ribonuclease inhibitor (Homo sapiens), P13489 (parent)
chain: MSLDIQSLDIQCEELSDARWAELLPLLQQCQVVRLDDCGLTEARCKDISSALRVNPALAELNLRSNELGDVGVHCVLQGLQTPSCKIQKLSLQNCCLTGAGCGVLSSTLRTLPTLQELHLSDNLLGDAGLQLLCEGLLDPQCRLEKLQLEYCSLSAASCEPLASVLRAKPDFKELTVSNNDINEAGVRVLCQGLKDSPCQLEALKLESCGVTSDNCRDLCGIVASKASLRELALGSNKLGDVGMAELCPGLLHPSSRLRTLWIWECGITAKGCGDLCRVLRAKESLKELSLAGNELGDEGARLLCETLLEPGCQLESLWVKSCSFTAACCSHFSSVLAQNRFLLELQISNNRLEDAGVRELCQGLGQPGSVLRVLWLADCDVSDSSCSSLAATLLANHSLRELDLSNNCLGDAGILQLVESVRQPGCLLEQLVLYDIYWSEEMEDRLQALEKDKPSLRVIS
B3: Ligand of Numb protein X 2 (Homo sapiens), Q8N448 (parent)
chain: MGTTSDEMVSVEQTSSSSLNPLCFECGQQHWTRENHLYNYQNEVDDDLVCHICLQPLLQPLDTPCGHTFCYKCLRNFLQEKDFCPLDRKRLHFKLCKKSSILVHKLLDKLLVLCPFSSVCKDVMQRCDLEAHLKNRCPGASHRRVALERRKTSRTQAEIENENGPTLLDPAGTLSPEADCLGTGAVPVERHLTSASLSTWSEEPGLDNPAFEESAGADTTQQPLSLPEGEITTIEIHRSNPYIQLGISIVGGNETPLINIVIQEVYRDGVIARDGRLLAGDQILQVNNYNISNVSHNYARAVLSQPCNTLHLTVLRERRFGNRAHNHSDSNSPREEIFQVALHKRDSGEQLGIKLVRRTDEPGVFILDLLEGGLAAQDGRLSSNDRVLAINGHDLKYGTPELAAQIIQASGERVNLTIARPGKPQPGNTIREAGNHSSSSQHHTPPPYYSRPSSHKDLTQCVTCQEKHITVKKEPHESLGMTVAGGRGSKSGELPIFVTSVPPHGCLARDGRIKRGDVLLNINGIDLTNLSHSEAVAMLKASAASPAVALKALEVQIVEEATQNAEEQPSTFSENEYDASWSPSWVMWLGLPSTLHSCHDIVLRRSYLGSWGFSIVGGYEENHTNQPFFIKTIVLGTPAYYDGRLKCGDMIVAVNGLSTVGMSHSALVPMLKEQRNKVTLTVICWPGSLV
partner: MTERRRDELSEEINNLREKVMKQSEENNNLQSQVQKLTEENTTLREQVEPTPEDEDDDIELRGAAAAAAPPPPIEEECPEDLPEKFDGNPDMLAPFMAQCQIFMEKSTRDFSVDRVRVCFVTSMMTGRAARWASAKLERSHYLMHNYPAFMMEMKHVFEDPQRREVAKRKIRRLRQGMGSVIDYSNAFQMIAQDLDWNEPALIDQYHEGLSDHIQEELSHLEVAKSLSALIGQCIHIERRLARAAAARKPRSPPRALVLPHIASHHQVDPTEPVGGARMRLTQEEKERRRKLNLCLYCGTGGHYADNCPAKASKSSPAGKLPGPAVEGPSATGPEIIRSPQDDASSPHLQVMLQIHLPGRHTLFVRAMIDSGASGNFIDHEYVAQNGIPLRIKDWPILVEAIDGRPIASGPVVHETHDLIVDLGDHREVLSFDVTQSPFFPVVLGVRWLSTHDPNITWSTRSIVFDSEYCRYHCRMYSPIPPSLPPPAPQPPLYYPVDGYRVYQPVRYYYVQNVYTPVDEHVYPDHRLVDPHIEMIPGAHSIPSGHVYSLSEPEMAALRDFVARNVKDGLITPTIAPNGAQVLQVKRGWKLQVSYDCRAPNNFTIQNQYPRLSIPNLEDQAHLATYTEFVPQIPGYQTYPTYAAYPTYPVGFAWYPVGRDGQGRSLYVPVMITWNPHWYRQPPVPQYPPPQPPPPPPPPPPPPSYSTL

Variants of: B1
Details: with praf1_human RABAC1, Q9UI14
praf1_human RABAC1, Q9UI14, sequence (Q9UI14 whole entry): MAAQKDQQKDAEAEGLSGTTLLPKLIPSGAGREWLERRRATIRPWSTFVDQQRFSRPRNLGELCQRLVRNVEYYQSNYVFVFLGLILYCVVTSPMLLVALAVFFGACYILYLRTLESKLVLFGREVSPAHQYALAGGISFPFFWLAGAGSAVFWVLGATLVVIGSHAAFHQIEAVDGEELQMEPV

effect of a mutation on the interaction	Variant
with no effect	K319E

Variants of: B1
Details: with ubql1_human UBQLN1, Q9UMX0
ubql1_human UBQLN1, Q9UMX0, sequence (Q9UMX0 whole entry): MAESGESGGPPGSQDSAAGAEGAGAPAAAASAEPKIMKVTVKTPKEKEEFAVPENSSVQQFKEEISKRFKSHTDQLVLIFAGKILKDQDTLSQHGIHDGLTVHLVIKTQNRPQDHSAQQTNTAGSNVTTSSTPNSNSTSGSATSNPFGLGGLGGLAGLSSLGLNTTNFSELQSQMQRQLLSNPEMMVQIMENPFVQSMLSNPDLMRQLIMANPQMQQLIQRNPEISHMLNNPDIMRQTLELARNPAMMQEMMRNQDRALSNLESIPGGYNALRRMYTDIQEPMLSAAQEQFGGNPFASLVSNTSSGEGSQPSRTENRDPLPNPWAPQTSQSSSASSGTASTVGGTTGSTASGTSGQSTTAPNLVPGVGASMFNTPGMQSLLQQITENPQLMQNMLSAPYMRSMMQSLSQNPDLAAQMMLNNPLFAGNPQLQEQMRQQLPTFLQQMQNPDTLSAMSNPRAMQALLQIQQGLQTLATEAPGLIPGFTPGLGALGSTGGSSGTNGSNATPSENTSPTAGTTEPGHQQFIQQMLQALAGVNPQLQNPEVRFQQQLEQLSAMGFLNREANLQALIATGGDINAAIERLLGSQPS

effect of a mutation on the interaction	Variant
with no effect	K319E

Variants of: B1
Details: with sdcb1_human SDCBP
Target sequence in this assay (O00560 whole entry): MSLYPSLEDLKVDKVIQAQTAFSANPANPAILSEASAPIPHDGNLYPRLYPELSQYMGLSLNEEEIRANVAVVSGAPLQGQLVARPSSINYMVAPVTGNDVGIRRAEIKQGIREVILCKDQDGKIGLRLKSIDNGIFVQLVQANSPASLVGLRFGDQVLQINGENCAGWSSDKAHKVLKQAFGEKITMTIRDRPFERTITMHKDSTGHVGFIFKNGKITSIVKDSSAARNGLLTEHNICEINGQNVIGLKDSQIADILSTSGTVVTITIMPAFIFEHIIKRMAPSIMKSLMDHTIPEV

effect of a mutation on the interaction	Variant
with no effect	K319E

Variants of: B1
Details: with nutm1_human NUTM1, Q86Y26
nutm1_human NUTM1, Q86Y26, sequence (Q86Y26 whole entry): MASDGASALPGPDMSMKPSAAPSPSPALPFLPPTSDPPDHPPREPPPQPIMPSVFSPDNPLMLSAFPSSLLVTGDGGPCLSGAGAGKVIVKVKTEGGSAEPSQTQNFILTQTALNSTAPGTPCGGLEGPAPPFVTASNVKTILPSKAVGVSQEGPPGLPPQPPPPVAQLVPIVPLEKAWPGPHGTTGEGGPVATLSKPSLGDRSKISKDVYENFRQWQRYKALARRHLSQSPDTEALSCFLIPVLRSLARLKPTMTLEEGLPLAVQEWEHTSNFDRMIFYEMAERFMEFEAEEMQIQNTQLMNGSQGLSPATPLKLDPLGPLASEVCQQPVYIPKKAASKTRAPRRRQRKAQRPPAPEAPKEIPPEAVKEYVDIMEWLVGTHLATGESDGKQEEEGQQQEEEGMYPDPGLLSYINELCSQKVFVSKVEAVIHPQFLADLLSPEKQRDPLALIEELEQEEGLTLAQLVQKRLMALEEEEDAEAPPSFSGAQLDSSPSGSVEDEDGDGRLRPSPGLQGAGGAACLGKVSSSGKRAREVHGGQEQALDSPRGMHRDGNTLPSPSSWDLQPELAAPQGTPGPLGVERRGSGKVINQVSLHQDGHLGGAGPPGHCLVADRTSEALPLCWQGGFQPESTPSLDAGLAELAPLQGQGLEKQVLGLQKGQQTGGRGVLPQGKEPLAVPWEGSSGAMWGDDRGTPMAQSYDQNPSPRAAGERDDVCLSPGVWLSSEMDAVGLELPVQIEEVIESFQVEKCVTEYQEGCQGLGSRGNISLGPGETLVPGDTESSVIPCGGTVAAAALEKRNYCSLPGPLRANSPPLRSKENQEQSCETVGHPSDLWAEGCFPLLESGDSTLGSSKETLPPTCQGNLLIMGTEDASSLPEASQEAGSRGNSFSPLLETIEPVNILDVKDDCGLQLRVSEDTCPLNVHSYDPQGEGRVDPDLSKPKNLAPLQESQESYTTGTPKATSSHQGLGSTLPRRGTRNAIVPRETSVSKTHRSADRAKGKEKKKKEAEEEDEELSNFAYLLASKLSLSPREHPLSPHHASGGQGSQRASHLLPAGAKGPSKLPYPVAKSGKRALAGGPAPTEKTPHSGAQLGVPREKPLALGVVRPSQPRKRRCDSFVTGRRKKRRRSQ

effect of a mutation on the interaction	Variant
with no effect	K319E

Variants of: B2
Details: with sdcb1_human SDCBP
Target sequence in this assay (O00560 whole entry): as the sequence (O00560 whole entry) above

effect of a mutation on the interaction	Variant
with no effect	V358M

Variants of: B3
Details: with peg10_human PEG10, Q86TG7

effect of a mutation on the interaction	Variant
with no effect	P669A
